According to the supplement of paper PMC10724198:
± gives the standard deviation of the averaged measurements.

The sequences below were run on Saccharomyces cerevisiae (assay: protein stability index of tFT-peptide fusion (C-terminal peptide) (PSI (0-1 scale)); higher = more stable (slower turnover)). Details: genetic background: wild type; temperature: 30 C.
Experimental: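 Multiplexed protein stability (MPS) profiling in S. cerevisiae. Random 12-aa peptides (tFT-X12 library) are fused to the C-terminus of a sfGFP-mCherry tandem fluorescent timer, after mCherry and a GGGS linker. Cells are FACS-sorted into 8 mCherry/sfGFP bins and deep-sequenced. The protein stability index (PSI) is the read-weighted bin average, scaled from 0 (unstable) to 1 (stable). Only peptides with >10 reads are reported; cells were grown at 30 °C in SC-His with glucose.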
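Further: PSI is a weighted mean of sequencing reads over stability bins, variants kept only with over 10 reads, mCherry proximal and sfGFP distal, peptide attached via GGGS linker.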

Row | Sequence | protein stability index
1 | VTRGGKLRRGRV | 0.638 ± 0.089
2 | PLSPFLPPPVPL | 0.703 ± 0.13
3 | PITLRRRSRPPT | 0.692 ± 0.052
4 | SRAIEPSEFSVA | 0.715 ± 0.055
5 | SLPRPPRPPQSH | 0.677 ± 0.038
6 | PRPPSPPADPAP | 0.744 ± 0.013
7 | PPPPPPPPSALP | 0.719 ± 0.043
8 | RFPFSFSGFFLL | 0.5532 ± 0.0033
9 | GVGGFGFGWSMV | 0.725 ± 0.057
10 | GLFFISLFFPFL | 0.575 ± 0.0096
11 | GESIIQTCLNSI | 0.845 ± 0.017
12 | RFPSSCAPLSPY | 0.621 ± 0.029
13 | SPSPHPQPLIPL | 0.681 ± 0.03
14 | VVRMFRLGNGNF | 0.7 ± 0.0083
15 | PRPCSPPPPDPC | 0.703 ± 0.022
16 | GELGGRAWVERG | 0.683 ± 0.044
17 | CASLATAPPTSQ | 0.728 ± 0.026
18 | HDLVRECVGPVH | 0.602 ± 0.024
19 | GFSFSSFLRGLF | 0.625 ± 0.017
20 | RPSRPPPRLLFA | 0.644 ± 0.03
21 | TSAPDSPVPSLP | 0.695 ± 0.015
22 | STTPASLLGHVF | 0.6441 ± 0.0061
23 | DSMGKVLLTCAN | 0.581 ± 0.0094
24 | SRGSSGHLVNLV | 0.607 ± 0.049
25 | ALPSALPPLPPP | 0.723 ± 0.055

Row | Sequence | protein stability index
26 | YTLMEERTKKDN | 0.742 ± 0.068
27 | LHAPFPHPPPPP | 0.6713 ± 0.005
28 | LVGLVCDFVFVL | 0.589 ± 0.007
29 | KNKKKKINKNKK | 0.713 ± 0.067
30 | VLLYSGVVKFLQ | 0.586 ± 0.021
31 | CLGGPAAWPLFS | 0.6778 ± 0.0025
32 | PTLSPSPLAPLS | 0.6635 ± 0.0018
33 | PLRSLRFYTTLS | 0.649 ± 0.018
34 | MLLSVDWAGDEI | 0.796 ± 0.11
35 | AWGYFTDTRERY | 0.687 ± 0.036
36 | ICWSTALDASFG | 0.725 ± 0.024
37 | PSWLPLPLLFLV | 0.416 ± 0.18
38 | PLPPLPPPPPPP | 0.639 ± 0.051
39 | EYGECWCWSSWR | 0.732 ± 0.059
40 | VSEEFAGSGTKS | 0.67 ± 0.064
41 | HLVYRRGLEVTF | 0.615 ± 0.061
42 | SEYHGRAQKTGP | 0.744 ± 0.034
43 | LLLSALSRRPSF | 0.678 ± 0.023
44 | PPGLRSYACCRN | 0.7615 ± 0.0046
45 | SVVSFIRRRSFL | 0.8656 ± 0.0084
46 | GRDKGNLQSLRR | 0.732 ± 0.014
47 | FGGSTPVLKPTQ | 0.719 ± 0.019
48 | PPLNPPRSPFSP | 0.6814 ± 0.0018
49 | LDGLLVCSNWPA | 0.805 ± 0.07
50 | VSYLAQSFLPNL | 0.69928 ± 9.6e-05

Row | Sequence | protein stability index
51 | KKKKKEEKKNDK | 0.721 ± 0.0073
52 | GEFISRSSRIEI | 0.64 ± 0.042
53 | TVCGTLISFVEG | 0.694 ± 0.028
54 | RGSTLPRRVRLK | 0.641 ± 0.042
55 | GGGVGGPGGVLK | 0.675 ± 0.075
56 | KVHVILTGKYEI | 0.7012 ± 0.0025
57 | HRPPATFPVAHP | 0.735 ± 0.042
58 | GGGGGKAGSHLG | 0.632 ± 0.01
59 | EIKEEKEHRNQE | 0.696 ± 0.052
60 | FQAYPPFSLVPA | 0.5533 ± 0.0029
61 | WSLPILPPPSPD | 0.663 ± 0.032
62 | PAHLFVPSSLFR | 0.702 ± 0.042
63 | EKEWKRGTRKLD | 0.702 ± 0.085
64 | SGMGGCRKGFEG | 0.717 ± 0.011
65 | CAPPSSPCLCSI | 0.701 ± 0.064
66 | TVPRSPPSPPLT | 0.7 ± 0.021
67 | HPAPGSPPAAHL | 0.734 ± 0.073
68 | WIKKGKNRLRKT | 0.586 ± 0.05
69 | FFPLSSLIAFLP | 0.6815 ± 0.0025
70 | RSTLGLAPPQSG | 0.67 ± 0.029
71 | RPLAVPPRPSPV | 0.729 ± 0.049
72 | PPRPPGFPPALF | 0.697 ± 0.018
73 | IESVGRTTRQGE | 0.748 ± 0.11
74 | VCRLLASCFWRL | 0.655 ± 0.035
75 | GWFRDCEWGASS | 0.712 ± 0.061

Row | Sequence | protein stability index
76 | VRCKGLGLAVCA | 0.541 ± 0.062
77 | WLVRNVVGGGVC | 0.722 ± 0.061
78 | PPPPLAPAPPAF | 0.744 ± 0.016
79 | SPPPPRAPTPPP | 0.698 ± 0.035
80 | KAEEKARGEDWQ | 0.681 ± 0.05
81 | VCVSRGPGTSDA | 0.685 ± 0.02
82 | QSNEHVRQSETS | 0.682 ± 0.03
83 | TCNWQGASSIIG | 0.6765 ± 0.0033
84 | TALSPPVPTLPP | 0.7 ± 0.013
85 | YGAGLSHLFRIS | 0.636 ± 0.041
86 | WGVCWRVWGFGC | 0.677 ± 0.074
87 | RDRTVGLLEGTA | 0.695 ± 0.085
88 | GRGGWVHRRIGA | 0.676 ± 0.035
89 | SGFLAKNIKQLC | 0.578 ± 0.042
90 | GSGRNMHLRGSL | 0.65 ± 0.019
91 | KTFPPVTLDFSS | 0.609 ± 0.013
92 | LRGVACCSPILG | 0.631 ± 0.036
93 | PWGGMNWGGLSV | 0.745 ± 0.073
94 | PPPPAPPPLLLP | 0.717 ± 0.044
95 | PFPPHSPPSAPS | 0.697 ± 0.0093
96 | CPLGHLCVIRFG | 0.59 ± 0.012
97 | FIRDKQTSFDIR | 0.68036 ± 0.00024
98 | AERARRERRGGV | 0.712 ± 0.1
